Experimental data reported in paper PMC5063714 (Journal of medicinal chemistry, 2016).
Where two headings read alike, the source gives them in different places. Square brackets hold non-standard residues; d marks the D form. Side chains are listed from the residue outwards. Ends that are not written are not given here. * marks the point of attachment. pyrrolidinyl = lysine with its side-chain amine cyclized into a pyrrolidine ring; azepanyl = lysine epsilon-N closed into a 7-membered azepane ring; piperidinyl = lysine epsilon-N closed into a piperidine ring; Lys(Me3) = C[N+](C)(C)CCCC[C@H](N)C(=O)O; NMeF = CN[C@@H](Cc1ccccc1)C(=O)O; dicyclobutyl = not defined here; diethyl = not defined here; Cyclopentyl = C1CCC(*)C1; cyclohexyl = C1CCC(*)CC1; Bz = O=C(c1ccccc1)*; iPr = CC(C)*

Experiments:
Assay in all cases: AlphaScreen or HTRF
[1] = molecular target: chromodomain of CBX5 (human)
[2] = molecular target: T1, chromodomain of CDYL2 (human, UniProt Q8N8U2 1-75)
T1 sequence (looked up): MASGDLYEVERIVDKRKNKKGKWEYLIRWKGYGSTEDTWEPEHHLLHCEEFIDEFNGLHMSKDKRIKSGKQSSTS

[3] = molecular target: T2, chromodomain of CBX7 (human, UniProt O95931 8-62)
T2 sequence (looked up): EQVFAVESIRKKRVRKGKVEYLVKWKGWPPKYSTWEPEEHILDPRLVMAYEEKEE

[4] = molecular target: T3, chromodomain of CBX4 (human, UniProt O00257-1 8-65)
T3 sequence (looked up): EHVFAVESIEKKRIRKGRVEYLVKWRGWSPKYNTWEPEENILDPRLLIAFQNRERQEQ

[5] = molecular target: chromodomain of CBX5 (human); remark: listed apart in the source
[6] = molecular target: chromodomain of CBX5 (human); remark: listed apart in the source
[7] = molecular target: chromodomain of CBX5 (human); remark: listed apart in the source
[8] = molecular target: T1, chromodomain of CDYL2; remark: listed apart in the source
[9] = molecular target: T2, chromodomain of CBX7; remark: listed apart in the source
[10] = molecular target: T3, chromodomain of CBX4; remark: listed apart in the source

Chain of chromodomain of CBX5 (human) (Q9UN86 18-75): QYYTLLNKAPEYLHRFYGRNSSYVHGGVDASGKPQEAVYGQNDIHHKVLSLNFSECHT

B1: compound 22 (peptide)
peptide: Bz-GFALK(dicyclobutyl)S-OMe
modifications: reading uncertain
[1]
  IC50: > 60 µM

B2: compound 23 (peptide)
peptide: Bz-GFALK([norbornyl-Ac])S-OMe
[1]
  IC50: > 60 µM

B3: compound 24 (peptide)
peptide: Bz-GFALK(tetramethylguanidino)S-OMe
[1]
  IC50: > 60 µM

B4: compound 27 (peptide)
peptide: Bz-FALK(diethyl)S-OMe
modifications: reading uncertain
[2]
  IC50: 0.34 µM
[3]
  IC50: 1.2 µM
[4]
  IC50: 3 µM
[5]
  IC50: 6.9 µM

B5: compound 28 (peptide)
peptide: {2‑Me‑Bz}-FALK(diethyl)S-OMe
modifications: reading uncertain
[2]
  IC50: 0.56 µM
[3]
  IC50: 25 µM
[4]
  IC50: 58 µM
[5]
  IC50: > 60 µM

B6: compound 29 (peptide)
peptide: {3‑Me‑Bz}-FALK(diethyl)S-OMe
modifications: reading uncertain
[2]
  IC50: 0.34 µM
[3]
  IC50: 0.74 µM
[4]
  IC50: 2.7 µM
[5]
  IC50: > 60 µM

B7: compound 30 (peptide)
peptide: {4‑Me‑Bz}-FALK(diethyl)S-OMe
modifications: reading uncertain
[2]
  IC50: 0.28 µM
[3]
  IC50: 0.22 µM
[4]
  IC50: 0.77 µM
[5]
  IC50: 21 µM

B8: compound 31 (peptide)
peptide: {4‑Et‑Bz}-FALK(diethyl)S-OMe
modifications: reading uncertain
[2]
  IC50: 0.1 µM
[3]
  IC50: 0.081 µM
[4]
  IC50: 0.19 µM
[5]
  IC50: 14 µM

B9: compound 32 (peptide)
peptide: {4‑iPr‑Bz}-FALK(diethyl)S-OMe
modifications: reading uncertain
[2]
  IC50: 0.1 µM
[3]
  IC50: 0.061 µM
[4]
  IC50: 0.16 µM
[5]
  IC50: 38 µM

B10: compound 1 (UNC3866) (peptide)
peptide: FALKS
modifications: N-terminal para-t-butyl benzoyl cap; diethyl-lysine in lieu of Kme3; C-terminal methyl ester
[2]
  IC50: 0.14 µM
[3]
  IC50: 0.037 µM
[4]
  IC50: 0.083 µM
[5]
  IC50: > 60 µM

B11: compound 33 (peptide)
peptide: {4‑CO2Me‑Bz}-FALK(diethyl)S-OMe
modifications: reading uncertain
[2]
  IC50: 0.11 µM
[3]
  IC50: 0.57 µM
[4]
  IC50: 1.2 µM
[5]
  IC50: 26 µM

B12: compound 34 (peptide)
peptide: {4‑CF3‑Bz}-FALK(diethyl)S-OMe
modifications: reading uncertain
[2]
  IC50: 0.13 µM
[3]
  IC50: 0.23 µM
[4]
  IC50: 0.48 µM
[5]
  IC50: 33 µM

B13: compound 36 (peptide)
peptide: {t‑butylbenzyl}-FALK(diethyl)S-OMe
modifications: reading uncertain
[2]
  IC50: 0.2 µM
[3]
  IC50: 4.4 µM
[4]
  IC50: 9.7 µM
[5]
  IC50: > 60 µM

B14: compound 39 (peptide)
peptide: {4‑tBu‑Bz}-FAL[Lys(Me3)]S-OMe
[2]
  IC50: 0.11 µM
[5]
  IC50: > 60 µM

B15: compound 6 (peptide)
peptide: Bz-GFAL[Lys(Me3)]S-OMe
[6]
  IC50: > 60 µM

B16: compound 44 (peptide)
peptide: {4‑tBu‑Bz}-FALK(diethyl)S-OH
modifications: reading uncertain
[7]
  IC50: > 60 µM
[8]
  IC50: 0.74 µM
[9]
  IC50: 0.13 µM
[10]
  IC50: 0.24 µM

B17: compound 45 (peptide)
peptide: {4‑tBu‑Bz}-FALK(diethyl)S-NMe2
modifications: reading uncertain
[7]
  IC50: > 60 µM
[8]
  IC50: 0.36 µM
[9]
  IC50: 0.047 µM
[10]
  IC50: 0.14 µM

B18: compound 46 (peptide)
peptide: {4‑tBu‑Bz}-FALK(diethyl)S
modifications: reading uncertain; also: C-terminal carbonyl removed entirely (R3 = -H)
[7]
  IC50: > 60 µM
[8]
  IC50: 0.41 µM
[9]
  IC50: 0.075 µM
[10]
  IC50: 0.2 µM

B19: compound 47 (peptide)
peptide: {4‑tBu‑Bz}-F(CH2NH2)ALK(diethyl)S-OMe
modifications: reading uncertain
[7]
  IC50: 53 µM
[8]
  IC50: 0.075 µM
[9]
  IC50: 0.063 µM
[10]
  IC50: 0.17 µM

B20: compound 48 (peptide)
peptide: {4‑tBu‑Bz}-F(CH2NHBoc)ALK(diethyl)S-OMe
modifications: reading uncertain
[7]
  IC50: 44 µM
[8]
  IC50: 0.16 µM
[9]
  IC50: 0.056 µM
[10]
  IC50: 0.098 µM

B21: compound 8 (peptide)
peptide: Bz-GFALKS-OMe
modifications: not fully specified (residues 3, 5)
[6]
  IC50: > 60 µM

B22: compound 9 (peptide)
peptide: Bz-G[NMeF]AL[Lys(Me3)]S-OMe
[6]
  IC50: > 60 µM

B23: compound 10 (peptide)
peptide: GFALKS
modifications: N-terminal benzoyl (Bz) cap; N-methylated glycine amide (N(me)Gly); trimethyl-lysine (Kme3); C-terminal methyl ester (Ser-OMe)
[6]
  IC50: > 60 µM

B24: compound 11 (peptide)
peptide: Bz-GFALKS-OMe
[1]
  IC50: > 60 µM

B25: compound 3 (peptide)
peptide: Bz-Ala-Leu-[Lys(Me3)]-NHMe
SMILES: CNC(=O)[C@H](CCCC[N+](C)(C)C)NC(=O)[C@H](CC(C)C)NC(=O)[C@H](C)NC(=O)c1ccccc1
[6]
  IC50: > 60 µM

B26: compound 12 (peptide)
peptide: Bz-GFALK(iPr)S-OMe
[1]
  IC50: > 60 µM

B27: compound 13 (peptide)
peptide: Bz-GFALK(Cyclopentyl)S-OMe
[1]
  IC50: > 60 µM

B28: compound 14 (peptide)
peptide: Bz-GFALK(cyclohexyl)S-OMe
[1]
  IC50: > 60 µM

B29: compound 15 (peptide)
peptide: Bz-GFALK(norbornyl)S-OMe
[1]
  IC50: > 60 µM

B30: compound 16 (peptide)
peptide: Bz-GFALK(adamantyl)S-OMe
[1]
  IC50: > 60 µM

B31: compound 17 (peptide)
peptide: Bz-GFALK(dimethyl)S-OMe
[1]
  IC50: > 60 µM

B32: compound 18 (peptide)
peptide: Bz-GFALK(diethyl)S-OMe
modifications: reading uncertain
[1]
  IC50: > 60 µM

B33: compound 19 (peptide)
peptide: Bz-GFALK(pyrrolidinyl)S-OMe
[1]
  IC50: > 60 µM

B34: compound 20 (peptide)
peptide: Bz-GFALK(piperidinyl)S-OMe
[1]
  IC50: > 60 µM

B35: compound 21 (peptide)
peptide: Bz-GFALK(azepanyl)S-OMe
[1]
  IC50: > 60 µM
